From the supplement of paper PMC12764529
± gives the half width of the 95% confidence interval.

Assay: folding stability dG unfold from chymotrypsin proteolysis; higher = more stable
Procedure, shortened: (§1)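 Bayesian fitting of sequencing counts gave K50 for each design. Unfolding free energy followed by setting this against a sequence-predicted unfolded-state K50 and a shared folded-state K50, either per protease or with trypsin and chymotrypsin combined. The designs, under 80 residues and lacking cysteine, were digested in a PA-tagged cDNA display format at 11 threefold-diluted protease concentrations and without protease, and only those with AlphaFold2 dimer inter-PAE above 15 were kept.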

Sequence | folding stability dG unfold [kcal/mol]
SIIVEPLPDNTFIAYFPETDSVIEIRVDPSTGKAHAIAELPGEPVEATFDPRKGVLVIELPNGRIVLPLLSA [r9_541_TrMRF] | 1.7 ± 0.065
SAGGSAGGSAPLSLVIDFPSGPATITFLEDGTARITYTDDDKTETIPVADLLKIPADVDPRSAGGSAGGSAG [r3_256_TrMRF] | 0.769 ± 0.12
SAGGKKIEIEIVFKEGEKAPSAEEIAKKLLEEIPNIKITSIEIVDVEYDEETGEKYVVVKITIEVEPPSAGG [r13_10_TrROS_Hall] | 3.14 ± 0.14
SAGGMITTSTLSDGTTVVTIRVPGSPEEADAVAEEVREALLAAGYRTVEVSREPVEDGWVVTITTVSSAGGS [r8_113_JUSTAS] | 3.888 ± 0.029
SAGGSAGGSAGGKKTITVPVKIEEVDGKFRITLPDGKVIEFPPGAKVEEKDGLLTIELESAGGSAGGSAGGS [r10_305_TrROS_Hall] | 1.13 ± 0.078
SAGGSAGGSMKNIKEIKVERRKLPNGGEYYVVTITYPDGKEIIIEMSPEETLEEALEKAKELSSAGGSAGGS [r12_1047_JUSTAS] | 3.01 ± 0.21
SAKIRIPLEKLIDLAESIPGVEVLYDPETGLLLAFIPEIGMLILIRLEEDPEDPDNVEVDIEIIPLSPFSAG [r14_604_TrMRF] | 2.08 ± 0.22
SAMEIVIEFESPEEAEKAIKEYVEKKGLKAVEIKMEFEPKWVEEKTPTGVKVTKEKYVAKVTVVTSKELSAG [r14_773_JUSTAS] | 2.03 ± 0.095
SAGGSAGGSAGGGKTVVYRFPASLTPEQAVDEITAKVPPNYPVIVEYHPESGTFVAYVPSAGGSAGGSAGGS [r10_163_TrMRF] | 0.743 ± 0.29
SAGGSAGGSKSKKYIEIDFSNLTEIKFNPNTNYATAIFKDKGKIYIAKIHFLPNGKAIAEVFDSAGGSAGGS [r12_839_TrMRF] | 2.931 ± 0.025
SAGGGLANLSLEEIRQLLLEKFPELPVEVKVTPVDEKDGVVLVTVRPPLPDGSTVESEEELPLEPGLSAGGS [r16_564_JUSTAS] | -1.28 ± 0.41
SAGGSAGGSPVVTVENVTRPSDYYTYTFKLPDGTVITLDAKSEEEAREKAKELGLENLNFKTEESAGGSAGG [r6_601_JUSTAS] | 3.88 ± 0.13
SMSIELDAESIEEIADFLKKAIEDGNPDAKIRIELYPLGGEREEREYDSIDEIIAELKKGPARIRIELEPSA [r9_589_TrMRF] | 2.29 ± 0.11
SAGGSAGGMKIEIFQNDDGIYVRIKLKPPNGPPRTMVFPFTANQIKDALKQFPNYKIEDIEVYRSAGGSAGG [r6_879_TrROS] | 2.18 ± 0.09
SKGTFRAVLPLETLKELIERFKSKGYRIEVKPLSIKPFEVPGIREDGTPELFPVVEVEAEIEIYPPEDPASA [r9_991_TrMRF] | 1.9 ± 0.063
QRTVYIPIRGMPPDQMVDMIRMALRQAREKGHPNRTIRIWMPGPPEQRERARRYIKELADEPGLNVTIEGWS [r1_387_TrROS] | 1.85 ± 0.08
SAGGKMLVKIKIKVTIYDKNGKPVKEVELELVFPSLEDLLNALKSLSPEKIKKVEIVSIEEIDEEDLSAGGS [r16_677_TrROS_Hall] | 4.06 ± 0.32
SAGIEIDIEVDPENGFIKITAKIHNPDGNPVYEMEMWIPVDNGRIYRVDIRINPDNGKIELDIEPFPLNSAG [r5_34_TrROS] | 3.88 ± 0.24
SAGGSAGGKKTYRLEITIYNKDGKEIKKIEIEAETEEEALEAAKKLQEEAKKKGLKVEIKVEKVSAGGSAGG [r6_285_TrROS_Hall] | 4.7 ± 0.068
SAGGSAPPIEIEIDKWERDPENGYVYATVKIKLPGKKIEIPIWMDDPPGQAENQVKMLAENIARQLSAGGSA [r15_979_TrROS] | 1.39 ± 0.11
SAGGSAGGSAGMTLEELAAADPDAVVPVKVPGTDTDVDVTVEPGAVRFTFPDGTTATVPASAGGSAGGSAGG [r17_128_JUSTAS] | 0.112 ± 0.19

Assay: folding stability dG unfold (combined trypsin and chymotrypsin); higher = more stable
Procedure, shortened: as §1

Sequence | folding stability dG unfold [kcal/mol]
SAGGKTIWIPMPPGDPEKFAKNIADEILEEAQKQGENVDVKITIQYPDGQYMRITIDGNGKIDKIVPWSAGG [r13_965_TrROS] | 0.636 ± 0.31
SAGGSAGGSAMTVRIEFEDGSVKEIPAEEFSEDFIKALPKKYKVSEYPEPPLDNNKSNILKSAGGSAGGSAG [r3_69_JUSTAS] | 0.431 ± 0.091
SAGMEKKTLTVTHPDGSEATVEVYKNPETGKYVTLVHYPETGKYEVFDDNGNLIATFGNGSAADAFKAISAG [r5_757_TrMRF] | 1.44 ± 0.13
SAGGSAGGSAGMKVAVLTIPENGKPVLVVELPDGGALAFDPDTDAVFLLDDDKIYYLGPASAGGSAGGSAGG [r17_476_TrMRF] | 1.13 ± 0.075
SAGGSAGGSAGGSPGNYREVEIEFRDPDDNGKEVKIEIWVQPGMPEEQIKEFVRELLRRSAGGSAGGSAGGS [r4_442_TrROS] | 1.32 ± 0.25
SMKITIVENEDGSLKIKVYFKDTGKVVEKTFEKGETIEEQVKKLAEELEKELGLEVVDVEIVKLPPPEKPSA [r9_1205_TrROS_Hall] | 3.57 ± 0.12
SAGGEMELTLTVTIKVENLTKEQIEEELRKLLEELGFEIEEITVEYDEENKTITVTVRIRLPPLEDLSAGGS [r16_287_TrROS_Hall] | 3.15 ± 0.25
SAGGSAGGSERWVKIWFPPGGTLEEASKMIEEWAQQLGLPITKIDEIEWDPGNGRVEITIRLKSAGGSAGGS [r12_131_TrROS] | 2.02 ± 0.062
SAMKKPPKTLTLVIVVKVPEEEMTEEQLEELARELAEALAPPGEKVEVKVEVERLPDGTVVVKIEIKLESAG [r14_389_TrROS_Hall] | 2.22 ± 0.17
SAGGSAGGSAEKTLTVVIKVKPNKTPEEIAKEIKKKLNLPNVEIVSIEYDKETNYITIKVKVSAGGSAGGSA [r18_481_TrROS_Hall] | 3.47 ± 0.12
SAGGSAMPLLIVDKNNNVTLISASSPEELEELLKKYNIKKIEPFPFPDGKALVFIAEYPDGIIYSGSAGGSA [r15_632_TrMRF] | 1.52 ± 0.049
SAGGSAGGSAGGKLIVLPVTSDEVFDFGDGPIPVPAGSIVVLEISPDGAKALVFSPEDLSAGGSAGGSAGGS [r10_353_TrMRF] | 1 ± 0.087
SAGDKIEIKFNIPMPEGPIRIMVWDNGKREEKDIPPGEEVTIKIDLPPGDDYRIAIYYPDGNMHEFPINSAG [r5_187_TrROS] | 2.47 ± 0.25
SAGGSAGGSAGGGMTVLSFTMPKEEVEKYFEEKGLDATEMTISPGPGDTYSVTVLDPGSSAGGSAGGSAGGS [r10_999_JUSTAS] | 0.151 ± 0.12
SAGGMLEEVAEELAKELNATAREFTTVGDVPRILLTFKVPGSSTYLEVTLTLPPDGSVERTTKPIAASAGGS [r16_433_JUSTAS] | 1.3 ± 0.14
SAGGMEEIEPVTITITVVDEETGEKVEIKITVPKEEITRIEIKPDGTIRIYFKENNEVIEIKLEDIKSAGGS [r16_410_TrROS_Hall] | 4.16 ± 0.32
SAGGSAGGSEATLEVEVRVDGVLVRVRVEYDLETQELRIEVEVRPLPPPPVEVRTEYRSLEDLSAGGSAGGS [r12_813_TrROS_Hall] | 1.5 ± 0.27
SMEIKIEITYDKDTNYLVIKVTIKLKTKTVDKKTKKVTEKEEEITLTLVIKLKPLKPGQKLKLEIKLFPESA [r9_1058_TrROS_Hall] | 4.4 ± 0.44
SAGGSAGGSAGGSDNKAILGDVPIKFYDKNGKPVITAKIGYFPDGRVVIYFPDGSKIEASAGGSAGGSAGGS [r10_972_TrMRF] | 1.25 ± 0.038
SAGGSAMKVRLEVEEEDGKLRVRLEVEVGPPVVRVEVEAEVEEVDGELVLKVTVKVELSPEALEALSAGGSA [r15_725_TrROS_Hall] | 3.78 ± 0.15
SAGGSAGGSAMRELVKRAAKNGNPGQKVMIRPPDKRYFPITVEGNKIEPKDLPPGWEVHVISAGGSAGGSAG [r3_244_TrROS] | -0.37 ± 0.28

Sequence | folding stability dG unfold [kcal/mol]
SIIVEPLPDNTFIAYFPETDSVIEIRVDPSTGKAHAIAELPGEPVEATFDPRKGVLVIELPNGRIVLPLLSA [r9_541_TrMRF] | 2.01 ± 0.088
SAGGSAGGSAPLSLVIDFPSGPATITFLEDGTARITYTDDDKTETIPVADLLKIPADVDPRSAGGSAGGSAG [r3_256_TrMRF] | 0.507 ± 0.091
SAGGKKIEIEIVFKEGEKAPSAEEIAKKLLEEIPNIKITSIEIVDVEYDEETGEKYVVVKITIEVEPPSAGG [r13_10_TrROS_Hall] | 3.17 ± 0.28
SAGGMITTSTLSDGTTVVTIRVPGSPEEADAVAEEVREALLAAGYRTVEVSREPVEDGWVVTITTVSSAGGS [r8_113_JUSTAS] | 3.711 ± 0.031
SAGGSAGGSAGGKKTITVPVKIEEVDGKFRITLPDGKVIEFPPGAKVEEKDGLLTIELESAGGSAGGSAGGS [r10_305_TrROS_Hall] | 1.14 ± 0.11
SAGGSAGGSMKNIKEIKVERRKLPNGGEYYVVTITYPDGKEIIIEMSPEETLEEALEKAKELSSAGGSAGGS [r12_1047_JUSTAS] | 2.92 ± 0.13
SAKIRIPLEKLIDLAESIPGVEVLYDPETGLLLAFIPEIGMLILIRLEEDPEDPDNVEVDIEIIPLSPFSAG [r14_604_TrMRF] | 2.4 ± 0.19
SAMEIVIEFESPEEAEKAIKEYVEKKGLKAVEIKMEFEPKWVEEKTPTGVKVTKEKYVAKVTVVTSKELSAG [r14_773_JUSTAS] | 1.28 ± 0.32
SAGGSAGGSAGGGKTVVYRFPASLTPEQAVDEITAKVPPNYPVIVEYHPESGTFVAYVPSAGGSAGGSAGGS [r10_163_TrMRF] | 0.666 ± 0.15
SAGGSAGGSKSKKYIEIDFSNLTEIKFNPNTNYATAIFKDKGKIYIAKIHFLPNGKAIAEVFDSAGGSAGGS [r12_839_TrMRF] | 2.68 ± 0.077
SAGGGLANLSLEEIRQLLLEKFPELPVEVKVTPVDEKDGVVLVTVRPPLPDGSTVESEEELPLEPGLSAGGS [r16_564_JUSTAS] | 0.229 ± 0.074
SAGGSAGGSPVVTVENVTRPSDYYTYTFKLPDGTVITLDAKSEEEAREKAKELGLENLNFKTEESAGGSAGG [r6_601_JUSTAS] | 3.8 ± 0.14
SMSIELDAESIEEIADFLKKAIEDGNPDAKIRIELYPLGGEREEREYDSIDEIIAELKKGPARIRIELEPSA [r9_589_TrMRF] | 1.88 ± 0.11
SAGGSAGGMKIEIFQNDDGIYVRIKLKPPNGPPRTMVFPFTANQIKDALKQFPNYKIEDIEVYRSAGGSAGG [r6_879_TrROS] | 1.9 ± 0.15
SKGTFRAVLPLETLKELIERFKSKGYRIEVKPLSIKPFEVPGIREDGTPELFPVVEVEAEIEIYPPEDPASA [r9_991_TrMRF] | 1.82 ± 0.066
QRTVYIPIRGMPPDQMVDMIRMALRQAREKGHPNRTIRIWMPGPPEQRERARRYIKELADEPGLNVTIEGWS [r1_387_TrROS] | 1.84 ± 0.055
SAGGKMLVKIKIKVTIYDKNGKPVKEVELELVFPSLEDLLNALKSLSPEKIKKVEIVSIEEIDEEDLSAGGS [r16_677_TrROS_Hall] | 3.73 ± 0.21
SAGIEIDIEVDPENGFIKITAKIHNPDGNPVYEMEMWIPVDNGRIYRVDIRINPDNGKIELDIEPFPLNSAG [r5_34_TrROS] | 3.79 ± 0.26
SAGGSAGGKKTYRLEITIYNKDGKEIKKIEIEAETEEEALEAAKKLQEEAKKKGLKVEIKVEKVSAGGSAGG [r6_285_TrROS_Hall] | 4.72 ± 0.15
SAGGSAPPIEIEIDKWERDPENGYVYATVKIKLPGKKIEIPIWMDDPPGQAENQVKMLAENIARQLSAGGSA [r15_979_TrROS] | 1.11 ± 0.13
SAGGSAGGSAGMTLEELAAADPDAVVPVKVPGTDTDVDVTVEPGAVRFTFPDGTTATVPASAGGSAGGSAGG [r17_128_JUSTAS] | -0.046 ± 0.17
